Experimental data taken from patent US20240041994A1, “CMV VACCINE AND METHOD OF MAKING AND USING THE SAME” (priority 2017, published 2024).
Ends that are not written are not given here.

molecular target: T1, CD94-NKG2C (Homo sapiens, UniProt P13747+P26717+Q13241); assay: not given; conditions: peptide bound to HLA-E; cited from earlier work
T1 construct: a linker into which cDNA encoding the extracellular domain of type II membrane proteins is inserted; Flag (N); CD8 leader (N); made in house; host or cells: 293T cells for the Fc fusion proteins; mouse RMA-S transfectants for HLA-E and B2M
T1 sequence (Q13241 32-179): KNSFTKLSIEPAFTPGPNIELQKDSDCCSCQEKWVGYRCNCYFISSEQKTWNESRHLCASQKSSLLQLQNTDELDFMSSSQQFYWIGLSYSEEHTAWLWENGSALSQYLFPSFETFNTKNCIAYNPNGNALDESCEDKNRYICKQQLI
T1 sequence (P61769 21-119, further chain): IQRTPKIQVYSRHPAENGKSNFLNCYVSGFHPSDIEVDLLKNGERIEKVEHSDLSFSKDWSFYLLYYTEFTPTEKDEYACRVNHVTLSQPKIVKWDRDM
T1 sequence (P13747 22-358): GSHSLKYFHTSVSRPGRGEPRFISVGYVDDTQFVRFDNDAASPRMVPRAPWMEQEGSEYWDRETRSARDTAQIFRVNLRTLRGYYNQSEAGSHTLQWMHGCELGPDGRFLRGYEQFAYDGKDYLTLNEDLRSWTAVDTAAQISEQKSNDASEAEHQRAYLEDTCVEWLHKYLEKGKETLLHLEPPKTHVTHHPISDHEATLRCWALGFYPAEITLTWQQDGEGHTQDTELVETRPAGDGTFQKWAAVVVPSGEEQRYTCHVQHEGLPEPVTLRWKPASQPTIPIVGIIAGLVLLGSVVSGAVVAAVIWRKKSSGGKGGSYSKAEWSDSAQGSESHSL
T1 sequence (P26717 94-231): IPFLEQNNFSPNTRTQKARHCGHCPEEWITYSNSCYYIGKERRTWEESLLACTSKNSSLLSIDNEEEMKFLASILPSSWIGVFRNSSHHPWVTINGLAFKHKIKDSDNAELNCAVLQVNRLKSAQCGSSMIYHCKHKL

For VMAPRTLFL [HLA-G leader peptide], the “binding of HLA-E/peptide to CD94-NKG2C” value is given as “bind both CD94-NKG2A and CD94-NKG2C (albeit with low affinity)”.

molecular target: T2, sHLA-E*01:03 (Homo sapiens, UniProt P13747); assay: Identification of peptides eluted from soluble HLA-E of CMV-infected vs uninfected U-373MG cells by immunoaffinity purification and LC-MS/MS; type: binding; conditions: number of spectra for the peptide, LC-MS/MS identification of HLA-E ligands (Table 1)
T2 construct: A soluble construct of HLA-E*01:03 was constructed by removing the transmembrane and cytoplasmic domains; expressed in transfected cells; host or cells: human U-373MG cells, uninfected or infected with CMV strain AD169

Point of comparison: SDEELVTTER, “# Spec” value 406. Against it:
- SASSATACTSGVMT — higher, 439
- SASSATACTSGVMTR — higher, 439
- VTGGGAMAGASTSAGR — higher, 420

same assay, conditions: number of spectra found for the HCMV peptide listed as HLA-E ligand (Table 1)

Point of comparison: “MDGDVRTAADISSTER (63) (MDGDVRTAADISSTLR)”, “# Spec” value 519. Against it:
- APSQKSKRSVTVEQPSTSADGSN (7) — lower, 21
- AQGDDDVWTSGSDSDEELVTTER (85) — lower, 393
- ARERGEFGDEDEEQEND (22) — lower, 351
- ARERGEFGDEDEEQENDGEPR (21) — lower, 351
- DDDVWTSGSDSDEELVTTER (87) — lower, 396
- EAGGVGGSSGGGGGSGLLPAKRS (55) — higher, 1211
- GPGLDNDLMNEPMGLGGLGGGGGGGGKKH (43) — lower, 312
- HRHLPVAD (82) — lower, 139
- PATLTAYDK (57) — higher, 572
- PNTYIHKTETD (60) — lower, 221
- PTYDELPSRPPQ (4) — higher, 730
- PVTGEDTFSAHGKSD (52) — higher, 615
- RSVTVEQPSTSAD (9) — lower, 28
- SQKSKRSVTVEQPSTSAD (8) — lower, 23
- SSVSGVRTPR (17) (also: PTM present) — lower, 2
- SVTVEQPSTSA (12) — lower, 29
- VLGPISGHV (78) — lower, 14
- VLGPISGHVLK (79) — lower, 14
- VRTAADISSTLR (67) — lower, 2
- VRTAADISSTLRSVPAPRPSP (66) — lower, 3
- VRTAADISSTLRSVPAPRPSPISTA (68) — lower, 3
- VTFEFVPNTK (46) — lower, 419
- VTVEQPSTSAD (13) — lower, 30
- VWTSGSDSDEELVTTE (91) — lower, 399

For SVPAPRPSPISTAST (72), the “# Spec” value was “$35”.

molecular target: T3, CD94-NKG2A (Homo sapiens, UniProt P13747+P26715+Q13241); assay: not given; conditions: peptide bound to HLA-E; cited from earlier work
T3 construct: a linker into which cDNA encoding the extracellular domain of type II membrane proteins is inserted; Flag (N); CD8 leader (N); made in house; host or cells: 293T cells for the Fc fusion proteins; mouse RMA-S transfectants for HLA-E and B2M
T3 sequence (P61769 21-119): as the sequence (P61769 21-119, further chain) above
T3 sequence (P26715 94-233): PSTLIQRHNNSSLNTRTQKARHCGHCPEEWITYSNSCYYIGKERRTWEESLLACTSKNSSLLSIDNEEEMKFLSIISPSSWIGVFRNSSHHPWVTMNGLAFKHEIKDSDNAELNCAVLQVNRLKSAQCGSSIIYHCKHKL
T3 sequence (P13747 22-358): as the sequence (P13747 22-358) above
T3 sequence (Q13241 32-179): as the sequence (Q13241 32-179) above

For VMAPRTLFL [HLA-G leader peptide], the “binding of HLA-E/peptide to CD94-NKG2A” value is given as “bind both CD94-NKG2A and CD94-NKG2C (albeit with low affinity)”.
